Results from the DeepSol protein solubility set.

Test: soluble on expression in E. coli; label from the status in PepcDB or PDB records

Row | Sequence | soluble on expression in E. coli
1 | MSLRKNLEEEQRLIDAKKLSLVIDLDKTLIDTTEVRNRAEVDAIKKLDPAATEDDFFEFNMNQNLLIRYRPHVRQFLASIAPYFDMQIYTLASPAYAHAILSKIDPEDKLFKNRIFSRTAEDFAMIKEAMRNQTDIVNKKNIKKIFPYSDKLVLVLDDSPEVWFCDNNKLFKGLVQIKRYSYFTRQGPNSPPTVNPDYVNDDILIQMRSVLIDVHDMFYKNYDPEESHVIMTLHQRKAQVFEGKTFYFSGLSEDDTMTFTRLAEEFGALVVDSFTPYTTHIIVGEGGTDDQIQKAMEYRGVYIIYLKWLFECFIQYARIEESLYSIQGIPCPTEGHHHHHH | soluble
2 | MSLRLKWEGTFADYLEIIKENPMVAQSAHSRVFNMIKDSGIEEIDGRKKYSFFDRELFGLEESLERLVEEYFHPAAKRLDVRKRILLLMGPVSGGKSTLVTMLKKGLEAYTLTDNGAVYAIKGCPMHEDPLHLIPHHLRDDFYREYGIRIEGSLSPLNVMRLEEEYGGRIEDVKVERIFFSEDKRTGIGTFSPSDPKSQDIADLTGSIDFSTIAEYGSESDPRAYRFDGELNKANRGMMEFQEMLKCDEKFLWHLLSLTQEGNFKAGRFALISADELIVAHTNETEYRSFISNKKNEALHSRIIVMPVPYNLKVSEEERIYEKMIAESDVADVHIAPHTLKVAAMFSILTRLKEPKRSDIDLVKKMRLYDGESVEGYNSVDVEDMKKEYNDEGMSGIDPRYVINRISSTIIRKNMESINSLDVLRSLKEGLDQHPSISSEDRERYLNFISAARKEYDDIAKKEVQKAFVYSYEESAKTLMDNYLDNVEAYCNKNKLRDPLTGEEMNPDEKLMRSIEEQIGISENAKKAFREEILIRISAYARKGKRFDYNSHERLREAIQKKLFADLKDVVKITTSTKTPDEQQLKKVNEVVARLIDEHGYNSTSANELLKYVGSLLNREGHHHHHH | soluble
3 | MSLRLPMGLVAVLALVGTAAHAAPKGAEARMIATVDAEQARTLRFLEVMVNQNSGSRNLEGVRRLRDIVVPEFTALGFTSRWIPMERTGRAGHLVLTHKGRQGAKKLLLIGHLDTVFEPDSPFQTYVLNGEKATGPGVGDDKGGIAVILAAVRAMNAAGTLKGASIEVFLTGDEEEAGSPTEVARADLVAAARAADVALDFEGLSRENGRDMGSIARRSSQSWSLTVEAKSGHSSGVWGANAGDGAIYAAAKIVNAFRTELPEPWLTLNVGLIAGGAEAEVAEDNAHVSAQGKTNIIPGEVIARGDLRTLSPEQNRAAMRKMEEIVGRPYPGVTSARIAFSEGYPPMAPTEGNKALLARLNQVNATLGLPEMQPLDPMKRGAGDISFVAEYIDGLVGLGPHSTGDHAPGETVDVPSIWTQAKRAALLMTRLSAEKSAREGHHHHHH | soluble
4 | MSLRPRVLLVEDSTSLAILYKQYVKDEPYDIFHVETGRDAIQFIERSKPQLIILDLKLPDMSGEDVLDWINQNDIPTSVIIATAHGSVDLAVNLIQKGAEDFLEKPINADRLKTSVALHLKRAKLEDLVENIQSTFDRHNYHGFIGSSLPMQAVYKTIDAVAPTSASVFIVGESGTGKEVCAEAVHRQSDRRDKPFIAINCGAIPRDLMESEIFGHVKGAFTGATTDRKGAATLAHGGTLFLDELCEMELEMQKTLLRFLQTGTYTPLGGTKEMKVDVRIICATNRDPLTEVEEGRFREDLYYRVHVVPIDMPPLRERGSDIVTLAKHFLTTYAKEDKKKFSNIDTEAQHVIKHYEWPGNVRQLQNIIRNIVVLNNDEKVTVAHLPAQLTQKKTQARTVTPVHVEGHHHHHH | soluble
5 | MSLRQFWFTMVKVDGTSMQPNLQNNERVVAFKTSKIKAGSVVVFNAYGLDPNQTDKNAVYVKRVIGMPGDTVRYTSSGKLYVNNKLVKQTYLKNKYQQTTGSFMANSHSKFTGWTLNSLSHDQGWAKSVTNNTVPKGYYFVLGDHRSVSNDGRYWGLVPKSKMIGVVKAWPWQNRKQYINNYQEGHHHHHH | soluble
6 | MSLRQIRTVIQYQTVRYDILPLSPVSRNRLAQVKRKILVLDLDETLIHSHHDGVLRPTVRPGTPPDFILKVVIDKHPVRFFVHKRPHVDFFLEVVSQWYELVVFTASMEIYGSAVADKLDNSRSILKRRYYRQHCTLELGSYIKDLSVVHSDLSSIVILDNSPGAYRSHPDNAIPIKSWFSDPSDTALLNLLPMLDALRFTADVRSVLSRNLHQHRLWEGHHHHHH | not soluble
7 | MSLRRTCVIGAGPSGLAASRVLASRGIPFDCYEAGSGIGGLWRYGNDNGMSGVYASLHANISKESMSFSSLPMPDSYPVFPHHTQVLAYLESYAETFGLHGHIGLRTEVTSVRPVEGGGWEVTRRSRGGAEAETDRYTEVVVANGHHWDPRLPDPAVPGAGVFEGSAVHAHAYRSPEPYAGQRVLVVGMGNSGCEIAAEISRSAARTFLSARAVAHVFPKMLLGRPADHWAVSRAAVLPRFLKDPGMALLLRLARGAPALYGLPEPVRRPLAAHPSTSDELLVQLARGAVTAKPGIRSFGRDSVSFTDGSRETVDAVVYATGYSLSFPFLAPAVFAAPDGRTELYLRTVPPRLPGLFFMGLAQPAGAAFPLLEPQAEWIADLIEGEVLLPTPAEMTRSIARARERHDKVYAPSYRHGIEIDICAYRRALRRELREGHHHHHH | not soluble
8 | MSLRRTRIRFEAWTAENAHRYHSLAHALPQLGARRPTGLLLDEAGRAAIPFLRTGQFIIGLGDPAGSERNCVAAIWRLRDLALQEGCKLAFIQVGQSLMAVYNDLGLTVCPDRTAGTVCCFSEDYRMLRAFLKGEERLARKREGHHHHHH | not soluble
9 | MSLRSIPSALQAKLDSGATTLARCWIVTRRDGVVMGFTDHDRDLTIGGVLCRAATGFTASEATSRFDLAVDGGEISGAFSDDSLSEADLAAGRYDAAGVATWLVDWSDVSLRIMIARGTIGEVRREGAAFTAELRGLADALAQDSGRLFTARCGVDLGDGKCRVDLASSAFRRSGTVTAVEGTSIVAVSGMSGLAAGWFTAGRLNWTGGANAGLAIEVKQHRVVAGVVRLSLWRAMAEPIAIGDSFVVTAGCDKSFTTCRDRFANTSNFRGFPQIPGNDFVVSYPLPGSPDNGNGSKALEGHHHHHH | soluble
10 | MSLRSYLGSISTSKTEVNSMKMHVLKLLIPTMALLLSACASLPPELGNPDDKSVVTQYSAWLERDPATQSPVRMGGVVANISNQKDRTRVELVNLPIDSAGRPNIHQEPQGRFVAYVPGFLDPITYGEGRLLTLYGTTAPSEQGKVGDYEHTYPVMNAQGYHLWRVEERVEVDDIGPYMFPCRGFYCWPRTMPERDGKIIQEVKEGGSHHHHHH | soluble
11 | MSLRVKYFGTDGIRGIFGETLTDELAFKVGKALGEIVGEGKVIVGKDTRVSGDSLEAAISAGLTSMGVDVLLCGILPTPAVALLTRITRSFGVVISASHNPPEYNGIKVLKGGYKIPDEMEAEIEKRLENGSFLTRSVVGRTKSFREGRDMYIGAVLEMFRDLDLTGEMVSLDLANGATTTTAREVFEFLGAKVEVFNDSQDGLLINQGCGATHPRFLAEEMKNGKVGFTFDGDGDRVIAVDEERNVVNGDRIIGILAVGLKEEGRLNSDTVVGTVMTNGGLEDFLKEKGIRLLRTKVGDKYVLEKMLESGANLGGERSGHIIILDRSTTGDGLITALELMRVLKRSGRKLSDFAKEIPDYPQITKNVRRTERMSLENENLRKIVEESTSRGYRVVIRPSGTEPVIRITVEGKDREEIEKIVEEISRVLESEGHHHHHH | soluble
12 | MSLRWLSLNTATVRKQGDLVAIIDACAKHGIRAIDPWRDQVASVGLDRAARAVRDAGLELSGYCRGGMFTSDASRRGEVRDDNRRCVDEAKALGAPCIVLVVGGLPQYSRPGSEPSKDIAAARGQVEEALADMLDYARQAGLPLAIEPLHPAYAADRACVNTTKQALDICDRLDPGRTGMLGVALDVYHIWWDPELMSQIARAGRDRLLAFHVCDWLVPTRDILNDRGMMGDGVIDIKSVRKAVEAQGFAGYSEIEIFSNDWWAKPMDEVLRTCITRHRTVVEGHHHHHH | not soluble
13 | MSLRYKVGEVAARLGLTLRTLKYYEELGLVTPERTDSRYRMYSEADVQRLERIRRMRALGLSLGTIQAISTHPQESDPDGRQVLTQEALHTLESDLSSQLTVLSTRITAAEKELKDARALRRDVQRDLDYVQRRLAGAQVGELLREKDPAEGHHHHHH | not soluble
14 | MSLRYLRFLTAGESHGKGLTAILEGIPANLPLSEEEINHELRRRQRGYGRGGRMKIEKDTAEILSGVRFGKTLGSPIALFIRNRDWENWKEKMAIEGEPSPSVVPFTRPRPGHADLSGGIKYNQRDLRNILERASARETAARVAVGAVCKKFLSEFGIKIGSFVVSIGQKEVEELKDKSYFANPEKLLSYHEKAEDSELRIPFPEKDEEFKTYIDEVKEKGESLGGVFEVFALNVPPGLGSHIQWDRRIDGRIAQAMMSIQAIKGVEIGLGFEAARRFGSQVHDEIGWSEGKGYFRHSNNLGGTEGGITNGMPIVVRVAMKPIPTLKNPLRSVDIETKEEMKAGKERTDIVAVPAASVVGEAMLAIVLADALLEKLGGDFMEEVKKRFEDYVNHVKSF | soluble
15 | MSLSAAEALTRIDRFVCDIKETQYGDGLHVFGAGDHGTGEIDGLIAALSARFVPPGPSGSPYRGRSDVRPTGRNLFTTDPRAVPSRAAYTQGVKLAEELLRKHLQDHGDWPKGLVMDMWGSATIRTAGEEFAMALHLAGLSPRWDDGSDRVSGFDILPLALLNRPRIDVTLRVSGLFRDMFPGLAQLFETAIAKLAERPETAADNPYLVQTPRVFGPRPGSYGLGIGTAMDDYSDEARTAAGEAWLAASSYAIDARGEITYARDALETQLTRADSFVHLQDLPETDLLMAEDYAAHEAGFAAAMQRLGKGGAAALYHLDATRPDQPRARTLTEELARVVRARAANPDWATGMMAHGFRGAAEIAATLDHLAAFAHLAGVVPDHLFDAMFDATLGRDDLVDFMQDANPQALAALRARFDALHRAGLWTSRRNSVLAELGTPAEGHHHHHH | soluble
16 | MSLSDDLFAPQVPVEVANRRPLADRLRPKTLSEVSGQPHLTGEEGVLRRMIDSGSLGSMIFWGPPGTGKTTVARLLSGEAGLAFEQISAIFSGVADLKKVFEAARTRRMNGRQTLLFVDEIHRFNRAQQDSFLPVMEDGTIILVGATTENPSFELNAALLSRARVLTFGSHDEDSLSELLKRAEEAEGKPLPLTEEARASLLRMADGDGRAVLTLAEEVWRAARKDETFDTEGLTRIVQRRAPVYDKSQDGHYNLISALHKSVRGSDPDAALYYLARMFDAGEDPLYLGRRLVRMAVEDIGLADPQALAVCNAAKDAYDYLGSPEGELALAQACVYLATAPKSNAVYTAFKAAMRAAKENGSLVPPKHILNAPTKLMKGEGYGDGYRYDHDEPDAFSGQDYFPEKMGRTTFYDPPDRGFEREIRKRLDWWAKLRRERGEGHHHHHH | not soluble
17 | MSLSDNRSHIEEKYQWDLTSIFPNDQTWEKEEKSLAKDLEIAVKRAGHLLDSSQSLLEITELYLALSRRLEKLYVYASMKNDQDTTVSYYQELQAKATALIAKFNQTFAFYEPEFMLLSTEKYQDFLADCPDLLPYQHFFEKLFKQKKHVLSQKEEALLAEASEIFGAAGETFEILDNADIIFPWVKDETGEEVELSHGNFISLMESKNRKVRQEAYKAMYSIYEQYQHTYAKTLQTNVKVNNFQAKIRNYKSAREAALAANFIPETVYDTLVEAVHNHLPLLQRYVKLRQNVLGLDDLKMYDIYVPLSEMDMTFTYEAALDKAEEVLAIFGRDYAERVHRAFRERWIDVRVNKGKRSGAYSGGSYDTNAFILLNWQDTLDNLFTLVHETGHSLHSTFTRENQPYVYGDYSIFLAEIASTTNENILTETLLKEATDEKQRFAILNHYLDGFKGTVFRQTQFAEFEDLIYKADQAGDVLTSDYLNNLYADLNEKYYGLSKENNPEIQYEWARIPHFYYNFYVYQYATGFAAASFLAHKIVHGNQEDKDKYLNYLKAGNSDYPLNVIAKAGLDMTESTYLDQAFKVFEERLIELEELVEKGIDEGHHHHHH | soluble
